Patent US20250197503A1 (SHANGHAI INSTITUTE OF MATERIA MEDICA CHINESE ACADEMY OF …, published 2025)

Target: T1, human PD-L1 on stably transfected cell line HEK293T/hPD-L1 (human, UniProt Q9NZQ7 19-290)
T1 construct: whole, on cells
Experiment: flow cytometry on HEK293T/hPD-L1 cells, 10 ug/ml nanobody, anti-human IgG Fc (FITC)
Method: The stably transfected cell line HEK293T/hPD-L1 was digested and centrifuged, and the supernatant was removed. The cells were washed once with PBS and the cell density was adjusted to 2.5×10⁶ cells/mL. 100 μL of cell suspension was added to each cell sample, i.e., 2.5×10⁵ cells/sample. Different anti-human PD-L1 candidate nanobodies (at a concentration of 10 μg/ml) were added into the samples. The samples were incubated in a 4° C. refrigerator for 20 min and then centrifuged to remove the supernatant, and washed once with PBS. The diluted antibody anti-human IgG Fc (FITC) was used as a secondary antibody to resuspend the above cells. The abtained samples were incubated in a 4° C. refrigerator for 20 min and centrifuged to remove the supernatant. The cells were washed twice with PBS, transferred to a flow tube; and detected on a flow cytometer to obtain the binding activity of the candidate nanobody with human PD-L1, as shown in FIG. 1.

T1 sequence (Q9NZQ7 19-290): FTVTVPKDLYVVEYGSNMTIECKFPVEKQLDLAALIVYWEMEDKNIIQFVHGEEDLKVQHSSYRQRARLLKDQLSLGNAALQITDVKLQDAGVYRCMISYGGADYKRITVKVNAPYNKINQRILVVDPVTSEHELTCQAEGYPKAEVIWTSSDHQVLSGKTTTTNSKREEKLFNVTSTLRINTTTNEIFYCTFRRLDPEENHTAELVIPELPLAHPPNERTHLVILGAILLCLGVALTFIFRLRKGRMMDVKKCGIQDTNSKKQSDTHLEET

Row | Binder | binding result
1 | h_Nb13 (expressed from pFUSE-hIgG1-Fc) (Fc fusion, not shown: human IgG1 Fc as encoded by the pFUSE-hIgG1-Fc vector) DVQLQESGGGLVQPGGSLRLSCAASGSIFSINAMGWYRQAPGKSRELVAAITSGGSTNYADSVKGRFTISRDTAKNTVYLLMNSLEPEDTAVYYCNVERRRPPHYLSEYDFDWGQGTQVTVSS | binds
2 | h_Nb26 (expressed from pFUSE-hIgG1-Fc) (Fc fusion, not shown: human IgG1 Fc as encoded by the pFUSE-hIgG1-Fc vector) DVQLQESGGGLVQPGGSLRLSCAAPGSIFRINAMGWYRQAPGKQRELVAAITSGGSTNYADSVQGRFTISRDNAKNTVYLQMNSLKPEDTAVYYCNVERRRPPHYYSDYDFDWGQGTQVTVSS | binds
3 | h_Nb5 (expressed from pFUSE-hIgG1-Fc) (Fc fusion, not shown: human IgG1 Fc as encoded by the pFUSE-hIgG1-Fc vector) DVQLQESGGGAVQSGESLRLSCAASGRDLMFYDVAWFRQAPGKEREGVSYIRSSGTLTKYADSVKGRFTISRDNDKNTVSLQMNSLNPEDTAKYYCAARLQSATSHSDLREDEFNSWGQGTQVTVSS | binds
4 | h_Nb4 (expressed from pFUSE-hIgG1-Fc) (Fc fusion, not shown: human IgG1 Fc as encoded by the pFUSE-hIgG1-Fc vector) DVQLQESGGGLVQAGGSLRLSCAAPSRMFSGYTMGWYRQAPGKQRELVAQIANGGFTDYIDSVKGRFSISRDTVLNMMYLQMNSLKPEDTAVYYCNLVLVNGIPTRNWGQGTQVTVSS | binds
5 | h_Nb6 (expressed from pFUSE-hIgG1-Fc) (Fc fusion, not shown: human IgG1 Fc as encoded by the pFUSE-hIgG1-Fc vector) DVQLQESGGGLAQPGGSLRLSCAASGFTFSSYAMSWARQAPGKGLEWVAGIYRGGSDTYYADSVKGRFTISRDNTKNTLYLQMNSLKPEDTALYYCIQGWGLGYANYDYWGQGTQVTVSS | binds
6 | h_Nb12 (expressed from pFUSE-hIgG1-Fc) (Fc fusion, not shown: human IgG1 Fc as encoded by the pFUSE-hIgG1-Fc vector) DVQLQESGGGLVQAGGSLRLSCAASGRTFSSRAMGWFRQAPGKEREFVAAISGSGRNTYYADSVKGRFTISRDNAKNSVNLQMNSLKPEDTAVYYCNAAGGGITIATMTQRTQYDYWGQGTQVTVSS | binds
7 | h_Nb9 (expressed from pFUSE-hIgG1-Fc) (Fc fusion, not shown: human IgG1 Fc as encoded by the pFUSE-hIgG1-Fc vector) DVQLQESGGGLVQPGGSLRLSCASSGSIFGLGVKGWYRQPPGNQREMVAQIISGGRISYADSVKGRFTISRDNAKNTVYLQMNSLKPEDTAVYYCNAWGPGQRNYWGRGTQVTVSS | binds
